From patent US20110151538A1

Target: CBM-Coh (carbohydrate-binding module and type-I cohesin from C. thermocellum CipA) (Clostridium thermocellum)
Assay: ELISA, plates coated with CBM-Coh; wtDoc-Xyn in 10 mM EDTA against wtDoc-Xyn in 1 mM CaCl2

Substance “wtDoc-Xyn (wild-type C. thermocellum Cel48S dockerin fused to the N-terminus of G. stearothermophilus xylanase T-6, C-terminal His tag)” has a ΔΔG (in EDTA relative to Ca2+) of 2.01 kcal/mol.
